Assay results as given in US20140294863A1, “SERUM ALBUMIN BINDING PEPTIDES FOR TUMOR TARGETING” (GENENTECH, INC., priority 2002, published 2014).
Bridges are numbered along the chain shown (N, C = ends). Where no end group is shown, it is not given here.

Key:
mouse albumin = biological target: T1, mouse albumin (Mus musculus, UniProt P07724); assay: Direct Binding ELISA, AB.Fab variants on immobilized mouse albumin; settings: average and SD of at least 3 determinations
T1 construct: purchased Sigma
Protocol: (§1) Mouse, rat, or rabbit albumin (Sigma, St. Louis, Mo.) were immobilized onto NUNC Maxisorp™ 96-well plates at 2 ug/ml overnight at 4° C. […] AB.Fab variants were serially diluted in binding buffer and added at 100 μl per well to the immobilized albumin for 30 minutes at 25° C. Unbound AB.Fab variant was removed by washing wells with 0.05% PBS/Tween® 20 and bound AB.Fab variant was detected with goat anti-human Fab′2-HRP for 1 hour at 25° C. Bound HRP was measured with a solution of tetramethylbenzidine (TMB)/H202. After 15 minutes, the reaction was quenched by the addition of 1M phosphoric acid.
(§2) Initially we explored binding of the AB.Fab variants to immobilized albumin using a Direct Binding ELISA.

rat albumin [1] = biological target: T2, rat albumin (Rattus norvegicus, UniProt P02770); assay: Direct Binding ELISA, AB.Fab variants on immobilized rat albumin; parameters: purchased Sigma; settings: average and SD of at least 3 determinations
Protocol: as §1, §2

rabbit albumin [2] = biological target: T3, rabbit albumin (Oryctolagus cuniculus, UniProt P49065); assay: Direct Binding ELISA, AB.Fab variants on immobilized rabbit albumin; parameters: purchased Sigma; settings: average and SD of at least 3 determinations
Protocol: as §1, §2

rat albumin [3] = biological target: T2, rat albumin; assay: Solution Binding ELISA, AB.Fab variants with soluble rat albumin; parameters: purchased Sigma; settings: Rat Albumin, soluble; Scatchard; average and SD of at least 3 determinations; read-out: Solution Binding ELISA (Kd)
rat albumin [4] = biological target: T2, rat albumin; settings: FIG. 3
rabbit albumin [5] = biological target: T3, rabbit albumin; settings: FIG. 3
TF and albumin = assay: biotin-TF binding assay (fusion on immobilized albumin detected with biotinylated TF); settings: FIG. 8
Text: Purified D3H44 fusions retained their ability to bind TF as measured using a FX activation assay (FIG. 5), and a prothrombin time assay that measures prolongation of tissue factor dependent clotting (FIG. 6). The assay methods are described, for example, in Dennis et al., 2000, Nature 404: 465. […] Further, each of the albumin-binding fusions bound TF and albumin simultaneously. […] In this assay, binding of the D3H44 fusions to immobilized albumin was detected with biotinylated TF.

[6] = Pharmacokinetics of D3H44 variants in rabbits (TF binding ELISA); format: in vivo, rabbit; parameters: V1 Avg (Historical): unit not given here
Protocol: D3H44 variants were administered to rabbits as a 0.5 mg/kg bolus injection into the marginal ear vein. Each test group consisted of 3 rabbits (5 rabbits were used in the F(ab′)2 group). Serum samples were taken at the indicated time points, serially diluted, and the concentration of D3H44 was determined using a TF binding ELISA.
Pharmacokinetic analysis was performed using the test article plasma concentrations. Group mean plasma data for each test article conforms to a multi-exponential profile when plotted against the time post-dosing. The data were fit by a standard two-compartment model with bolus input and first-order rate constants for distribution and elimination phases. The general equation for the best fit of the data for i.v. administration was: c(t)=Ae^−αt+[…], where c(t) is the plasma concentration at time t, A and B are intercepts on the Y-axis, and α and β are the apparent first-order rate constants for the distribution and elimination phases, respectively. The α-phase is the initial phase of the clearance and reflects distribution of the protein into all extracellular fluid of the animal, whereas the second or β-phase portion of the decay curve represents true plasma clearance. Methods for fitting such equations are well known in the art. For example, A=D/V(α−k21)/(α−β), B=D/V (β−k21)/(α−β), and α and β (for α>β) are roots of the quadratic equation: r^2+(k12+k21+k10)r+k21k10=0 using estimated parameters of V=volume of distribution, k10=elimination rate, k12=transfer rate from compartment 1 to compartment 2 and k21=transfer rate from compartment 2 to compartment 1, and D=the administered dose.
Data analysis: Graphs of concentration versus time profiles were made using KaleidaGraph (KaleidaGraph™ V. 3.09 Copyright 1986-1997. Synergy Software. Reading, Pa.). Values reported as less than reportable (LTR) were not included in the PK analysis and are not represented graphically. Pharmacokinetic parameters were determined by compartmental analysis using WinNonlin software (WinNonlin® Professional V. 3.1 WinNonlin™ Copyright 1998-1999. Pharsight Corporation. Mountain View, Calif.). Pharmacokinetic parameters were computed as described in Ritschel W A and Kearns G L, 1999, IN: Handbook Of Basic Pharmacokinetics Including Clinical Applications, 5th edition, American Pharmaceutical Assoc., Washington, D.C.

[7] = in vivo; cited from earlier work
[8] = in vivo; cited from earlier work; remark: listed apart in the source
[9] = in vivo; cited from earlier work; remark: listed apart in the source
[10] = in vivo; cited from earlier work; remark: listed apart in the source
[11] = Summarized Pk Data (Historical)

T2 sequence (P02770 25-608): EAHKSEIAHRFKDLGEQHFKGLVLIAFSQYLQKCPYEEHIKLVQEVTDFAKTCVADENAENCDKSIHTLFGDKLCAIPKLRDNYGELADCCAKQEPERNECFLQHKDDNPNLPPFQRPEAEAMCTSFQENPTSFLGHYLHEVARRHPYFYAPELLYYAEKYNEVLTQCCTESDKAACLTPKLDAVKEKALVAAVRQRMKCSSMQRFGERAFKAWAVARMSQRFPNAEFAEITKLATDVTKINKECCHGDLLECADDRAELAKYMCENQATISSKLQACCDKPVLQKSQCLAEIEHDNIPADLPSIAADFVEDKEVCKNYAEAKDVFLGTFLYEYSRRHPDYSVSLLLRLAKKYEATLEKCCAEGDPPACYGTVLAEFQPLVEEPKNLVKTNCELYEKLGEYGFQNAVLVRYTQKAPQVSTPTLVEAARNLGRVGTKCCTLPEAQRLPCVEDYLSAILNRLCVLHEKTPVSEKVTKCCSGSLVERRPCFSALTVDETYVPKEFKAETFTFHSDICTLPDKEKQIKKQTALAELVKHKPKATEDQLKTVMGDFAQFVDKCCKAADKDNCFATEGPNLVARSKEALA
T3 sequence (P49065 25-608): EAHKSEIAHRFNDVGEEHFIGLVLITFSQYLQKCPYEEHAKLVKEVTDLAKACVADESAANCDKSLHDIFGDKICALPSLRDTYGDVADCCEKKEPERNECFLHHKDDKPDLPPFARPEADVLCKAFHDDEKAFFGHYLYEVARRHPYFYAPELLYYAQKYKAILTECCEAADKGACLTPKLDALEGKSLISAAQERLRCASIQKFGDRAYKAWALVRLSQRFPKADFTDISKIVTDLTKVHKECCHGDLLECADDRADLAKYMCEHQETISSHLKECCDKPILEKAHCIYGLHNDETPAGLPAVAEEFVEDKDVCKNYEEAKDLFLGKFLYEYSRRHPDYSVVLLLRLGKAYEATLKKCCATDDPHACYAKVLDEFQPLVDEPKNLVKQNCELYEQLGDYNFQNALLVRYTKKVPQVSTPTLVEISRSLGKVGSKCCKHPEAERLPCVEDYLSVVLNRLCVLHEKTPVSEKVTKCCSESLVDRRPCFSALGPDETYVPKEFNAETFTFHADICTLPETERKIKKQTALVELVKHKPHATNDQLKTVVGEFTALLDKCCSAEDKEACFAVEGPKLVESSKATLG
T1 sequence (P07724 25-608): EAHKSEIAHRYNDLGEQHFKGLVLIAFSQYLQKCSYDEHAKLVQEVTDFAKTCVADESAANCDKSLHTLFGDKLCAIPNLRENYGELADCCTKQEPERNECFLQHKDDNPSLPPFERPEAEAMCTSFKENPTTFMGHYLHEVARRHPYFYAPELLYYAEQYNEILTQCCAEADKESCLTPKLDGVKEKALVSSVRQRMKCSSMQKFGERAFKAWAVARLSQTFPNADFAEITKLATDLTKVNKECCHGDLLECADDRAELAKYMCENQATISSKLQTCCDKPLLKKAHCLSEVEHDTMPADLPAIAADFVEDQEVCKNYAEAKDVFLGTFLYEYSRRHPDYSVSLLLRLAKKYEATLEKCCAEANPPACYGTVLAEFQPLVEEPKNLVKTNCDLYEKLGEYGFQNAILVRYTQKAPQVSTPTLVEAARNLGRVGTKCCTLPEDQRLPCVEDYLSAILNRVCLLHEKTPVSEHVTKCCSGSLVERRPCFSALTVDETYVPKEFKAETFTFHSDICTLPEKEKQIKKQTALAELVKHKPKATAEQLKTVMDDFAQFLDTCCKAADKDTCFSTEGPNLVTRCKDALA

4D5-H11: AB.Fab variant made by deletion in 4D5-H4 (Table 12) (DICLPRWGCL; disulfide 3-9 (inferred); also: part of Fab heavy chain)
EC50 (mouse albumin): > 2000 nM
EC50 (rat albumin [1]): > 1000 nM
EC50 (rabbit albumin [2]): > 2000 nM
Kd (rat albumin [3]): 2430 ± 320 nM

CC[C@H](C)[C@H](NC(=O)[C@H](CC(C)C)NC(=O)CNC(=O)[C@H](CCC(N)=O)NC(C)=O)C(=O)NCC(=O)N[C@@H](CC(=O)O)C(=O)N[C@H](C(=O)N[C@H]1CSSC[C@@H](C(=O)N[C@@H](CC(C)C)C(=O)N[C@@H](Cc2c[nH]c3ccccc23)C(=O)NCC(=O)N[C@@H](CC(=O)O)C(=O)N[C@@H](CO)C(=O)N[C@H](C(=O)N[C@@H](CCCCN)C(N)=O)C(C)C)NC(=O)CNC(=O)[C@H](Cc2c[nH]c3ccccc23)NC(=O)[C@H](CCCNC(=N)N)NC(=O)[C@@H]2CCCN2C(=O)[C@H](CC(C)C)NC1=O)[C@@H](C)CC [SA08]
inhibition of RD phage binding to rat albumin (rat albumin [4]): clearly blocked
inhibition of BA phage binding to rabbit albumin (rabbit albumin [5]): clearly blocked

D3H44-Fab: Fab fragment of D3H44, a humanized antibody that binds human tissue factor (TF)
simultaneous binding of TF and albumin (TF and albumin): did not bind albumin
AUC Avg (Historical) [6, 11]: 9800 ng·h/mL
AUC/Dose Avg (Historical) [6, 11]: 19.7 (hr * ug/mL)(/(mg/kg)
CL Avg (Historical) [6, 11]: 0.863 mL/min/kg
K10-HL Avg (Historical) [6, 11]: 0.760 hr
V1 Avg (Historical) [6, 11]: 55.9
Vss Avg (Historical) [6, 11]: 0.127 L/kg
AUC Avg ([6]; rabbit, 0.5 mg/kg bolus i.v.): 5860 ng·h/mL
AUC/Dose Avg ([6]; rabbit, 0.5 mg/kg bolus i.v.): 14.8 (hr * ug/mL)/(mg/kg)
Cmax Avg ([6]; rabbit, 0.5 mg/kg bolus i.v.): 5000 ng/mL
MRT Avg ([6]; rabbit, 0.5 mg/kg bolus i.v.): 3.07 h
V1* Avg (initial distribution volume) ([6]; rabbit, 0.5 mg/kg bolus i.v.): 0.0906 L/kg

albumin
half-life in mouse [7]: 24 h
half-life in rat [8]: 45.6 h
half-life in rabbit [9]: 133 h
half-life in man [10]: 456 h
